Target: enterovirus D68 clade B2 virus (enterovirus D68)
Assay: cell-based or functional assay

B1: AAA_G12 anti-EV-D68 VHH (recombinant VHH G12) (VHH)
VHH: QVQLVESGGGLVQPGGSLRLSCLASGITFTVYRMAWYRQAPGRQRDLVAEVAPGGGTVAANSVKGRFTISRDSAKNTVDLQMNDLKPDDTAVYYCYARNLFTSGEYWGQGTQVTVSS
With B1 the “50% inhibitory concentrations (IC50), neutralization by real time cell analysis (RTCA) assay” value was roughly 1 nM.
